Experimental data: US20230265217A1

B1: 7-26 (VHH)
VHH: EVQLVESGGGLVQPGGSLRLSCAASGSTFSINAMGWFRQAPGKEREFVAGITSSGGYTNYADSVKGRFTISADNSKNTAYLQMNSLKPEDTAVYYCAADGVPEYSDYASGPVWGQGTLVTVSS
B2: 3-31 (VHH)
VHH: B1 VHH

Assays:
Settings in all cases: remark: other sources report otherwise
[1] = target: S1 RBD L452R E484Q (Acro) (SARS-CoV-2), P0DTC2; experiment: Carterra SPR
[2] = target: T1, SARS-CoV-2 S protein trimer (Alpha B.1.1.7 UK variant) [SPN-C52H6] (SARS-CoV-2), P0DTC2; experiment: binding kinetics, Carterra SPR
[3] = target: T2, SARS-CoV-2 S protein trimer (Beta B.1.351 SA variant) [SPN-C52Hk] (SARS-CoV-2), P0DTC2; experiment: binding kinetics, Carterra SPR
[4] = target: T3, SARS-CoV-2 S protein trimer (Delta B.1.617.2 India variant) [SPN-C52He] (SARS-CoV-2), P0DTC2; experiment: binding kinetics, Carterra SPR
[5] = target: T4, SARS-CoV-2 S protein trimer (Kappa B.1.617.1 India variant) [SPN-C52Hr] (SARS-CoV-2), P0DTC2; experiment: binding kinetics, Carterra SPR
[6] = target: SARS-CoV-2 S protein trimer [SPN-C52H9] (SARS-CoV-2), P0DTC2; experiment: binding kinetics, Carterra SPR
[7] = target: T1, SARS-CoV-2 S protein trimer (Alpha …); experiment: Carterra SPR
[8] = target: T2, SARS-CoV-2 S protein trimer (Beta …); experiment: Carterra SPR
[9] = target: T3, SARS-CoV-2 S protein trimer (Delta …); experiment: Carterra SPR
[10] = target: T4, SARS-CoV-2 S protein trimer (Kappa …); experiment: Carterra SPR
[11] = target: SARS-CoV-2 S protein trimer (P.1 Gamma Brazil variant) [SPN-C52Hg] (SARS-CoV-2), P0DTC2; experiment: Carterra SPR
[12] = target: SARS-CoV-2 S protein trimer [SPN-C52H7] (SARS-CoV-2), P0DTC2; experiment: Carterra SPR

Row | Binder | Kd [1] [nM] | Kd [2] [nM] | koff [2] [s⁻¹] | kon [2] [M⁻¹ s⁻¹] | Kd [3] [pM] | koff [3] [s⁻¹] | kon [3] [M⁻¹ s⁻¹] | Kd [4] [nM] | koff [4] [s⁻¹] | kon [4] [M⁻¹ s⁻¹] | Kd [5] [pM] | koff [5] [s⁻¹] | kon [5] [M⁻¹ s⁻¹] | Kd [6] [nM] | koff [6] [s⁻¹] | kon [6] [M⁻¹ s⁻¹] | also measured
1 | B1 | 18 | < 0.00965 | < 1e-05 | 1.04e+06 | < 8.08 | < 1e-05 | 1.24e+06 | < 0.0104 | < 1e-05 | 958000 | < 8.52 | < 1e-05 | 1.17e+06 | < 0.011 | < 1e-05 | 911000 | –
2 | B2 | 16.2 | < 0.0108 | < 1e-05 | 925000 | < 9.8 | < 1e-05 | 1.02e+06 | < 0.0107 | < 1e-05 | 938000 | < 10 | < 1e-05 | 1e+06 | < 0.0136 | < 1e-05 | 734000 | Kd [7]: 0.0143 nM; koff [7]: 1e-05 s⁻¹; kon [7]: 699000 M⁻¹ s⁻¹; Kd [8]: 0.0117 nM; koff [8]: 1e-05 s⁻¹; kon [8]: 851000 M⁻¹ s⁻¹; Kd [9]: 0.0134 nM; koff [9]: 1e-05 s⁻¹; kon [9]: 744000 M⁻¹ s⁻¹; Kd [10]: 0.0129 nM; koff [10]: 1e-05 s⁻¹; kon [10]: 777000 M⁻¹ s⁻¹; Kd [11]: < 0.012 nM; koff [11]: < 1e-05 s⁻¹; kon [11]: 834000 M⁻¹ s⁻¹; Kd [12]: < 0.0167 nM; koff [12]: < 1e-05 s⁻¹; kon [12]: 600000 M⁻¹ s⁻¹
